Measured values taken from PMC10209032, “Molecular determinants for Rous sarcoma virus intasome assemblies involved in retroviral integration”.

Experiments:
[1] = target: Rous sarcoma virus (RSV) integrase, WT full-length IN (1–286 aa), Prague A (Rous sarcoma virus (Prague A)); test: not stated; oligomeric state of free purified IN proteins, without DNA; shown in Fig. S5, method and conditions not given
[2] = target: Rous sarcoma virus integrase IN (1–278), C-terminal tail truncation (Rous sarcoma virus (Prague A)); test: cryo-EM structure; STC intasome assembled from IN (1–278) 35 μM and the viral/target DNA substrate 10 μM by dialysis, purified by SEC in 20 mM HEPES pH 7.5, 650 mM NaCl, 1 mM TCEP; single particle, C2 symmetry, 3.36 Å; the IN oligomer stands on two DNA substrates
[3] = target: Rous sarcoma virus integrase IN (1–286) R244A (Rous sarcoma virus (Prague A)); test: not stated; oligomeric state of free purified IN proteins, without DNA; shown in Fig. S5, method and conditions not given
[4] = target: Rous sarcoma virus integrase IN (1–286) R244E (Rous sarcoma virus (Prague A)); test: as above
[5] = target: Rous sarcoma virus integrase IN (1–286) Y246A (Rous sarcoma virus (Prague A)); test: as above
RSV IN (1-278) = target: T1, RSV IN (1-278) (Rous sarcoma virus, Prague A, UniProt P03354 1281-1558); test: cryo-EM (3.36 A); SEC; Zn2+ and Mg2+ listed in structure table; octameric STC; STC (IN 1-278, cryo-EM prep): 35 uM IN + 10 uM DNA in 20 mM HEPES pH 7.5, 1 M NaCl, 20% glycerol, 1 mM TCEP, dialyzed to 0.125 M NaCl, solubilized at 0.75 M NaCl; SEC in 20 mM HEPES pH 7.5, 650 mM NaCl, 1 mM TCEP. Mutant STC 18 h at 4 C; CSC with MK-2048 18 h at 18 C (buffer not in material); settings: protein: recombinant; chain copies: 8; branched; S2 pairs with S1[1-20] leaving 5' AA unpaired; S3 pairs with S1[27-42]; self-complementary S1[21-26]; GTGCAC pairs two copies; 2 copies of each strand in STC
T1 sequence: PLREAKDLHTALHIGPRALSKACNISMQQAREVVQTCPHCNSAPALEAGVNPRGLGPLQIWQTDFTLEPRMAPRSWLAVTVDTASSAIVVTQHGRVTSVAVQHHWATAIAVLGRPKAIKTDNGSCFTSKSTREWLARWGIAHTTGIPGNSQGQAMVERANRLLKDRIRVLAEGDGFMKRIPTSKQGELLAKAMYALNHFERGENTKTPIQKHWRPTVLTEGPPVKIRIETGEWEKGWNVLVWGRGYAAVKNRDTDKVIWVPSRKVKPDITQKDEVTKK

Rous sarcoma virus (RSV) integrase, WT full-length IN (1–286 aa), Prague A (enzyme)
stoichiometry N [1]: 2

Rous sarcoma virus integrase IN (1–278), C-terminal tail truncation (enzyme)
stoichiometry N [2]: 8

Rous sarcoma virus integrase IN (1–286) R244A (enzyme)
stoichiometry N [3]: 2

Rous sarcoma virus integrase IN (1–286) R244E (enzyme)
stoichiometry N [4]: 2

Rous sarcoma virus integrase IN (1–286) Y246A (enzyme)
stoichiometry N [5]: 2

B1: RSV STC substrate (viral/target DNA) (mixed)
DNA 1: GAGTATTGCATAAGACAACAGTGCACGAAAGAAGAAGACACT
DNA 2: AATGTTGTCTTATGCAATACTC
DNA 3: AGTGTCTTCTTCTTTC
binding result (RSV IN (1-278)): binds
